Assay results published in the Human Domainome abundance scans (Beltran et al. 2025).
± gives the uncertainty stated by the source.

B1: Gamma-crystallin C, residues 4 to 79; numbered along this chain, P07315 (parent)
chain: ITFYEDRAFQGRSYETTTDCPNLQPYFSRCNSIRVESGCWMLYERPNYQGQQYLLRRGEYPDYQQWMGLSDSIRSC

Variants of: B1
Assay: abundance fitness (aPCA) (normalised: wild type 0, dead -1); higher = more abundant; growth selection in yeast, the domain comes from the species named
Conditions: Homo sapiens

| Variant | abundance fitness |
| --- | --- |
| ITFYEDTAFQGRSYETTTDCPNLQPYFSRCNSIRVESGCWMLYERPNYQGQQYLLRRGEYPDYQQWMGLSDSIRSC | -0.237 ± 0.19 |
| ITFYEDVAFQGRSYETTTDCPNLQPYFSRCNSIRVESGCWMLYERPNYQGQQYLLRRGEYPDYQQWMGLSDSIRSC | 0.045 ± 0.087 |
| ITFYEDWAFQGRSYETTTDCPNLQPYFSRCNSIRVESGCWMLYERPNYQGQQYLLRRGEYPDYQQWMGLSDSIRSC | -0.086 ± 0.11 |
| ITFYEDYAFQGRSYETTTDCPNLQPYFSRCNSIRVESGCWMLYERPNYQGQQYLLRRGEYPDYQQWMGLSDSIRSC | -0.266 ± 0.24 |
| ITFYEDRCFQGRSYETTTDCPNLQPYFSRCNSIRVESGCWMLYERPNYQGQQYLLRRGEYPDYQQWMGLSDSIRSC | 0.072 ± 0.092 |
| ITFYEDRDFQGRSYETTTDCPNLQPYFSRCNSIRVESGCWMLYERPNYQGQQYLLRRGEYPDYQQWMGLSDSIRSC | -0.275 ± 0.24 |
| ITFYEDREFQGRSYETTTDCPNLQPYFSRCNSIRVESGCWMLYERPNYQGQQYLLRRGEYPDYQQWMGLSDSIRSC | 0.103 ± 0.11 |
| ITFYEDRFFQGRSYETTTDCPNLQPYFSRCNSIRVESGCWMLYERPNYQGQQYLLRRGEYPDYQQWMGLSDSIRSC | -0.06 ± 0.13 |
| ITFYEDRGFQGRSYETTTDCPNLQPYFSRCNSIRVESGCWMLYERPNYQGQQYLLRRGEYPDYQQWMGLSDSIRSC | 0.053 ± 0.1 |
| ITFYEDRHFQGRSYETTTDCPNLQPYFSRCNSIRVESGCWMLYERPNYQGQQYLLRRGEYPDYQQWMGLSDSIRSC | 0.016 ± 0.2 |
| ITFYEDRIFQGRSYETTTDCPNLQPYFSRCNSIRVESGCWMLYERPNYQGQQYLLRRGEYPDYQQWMGLSDSIRSC | 0.001 ± 0.18 |
| ITFYEDRMFQGRSYETTTDCPNLQPYFSRCNSIRVESGCWMLYERPNYQGQQYLLRRGEYPDYQQWMGLSDSIRSC | 0.013 ± 0.12 |
| ITFYEDRNFQGRSYETTTDCPNLQPYFSRCNSIRVESGCWMLYERPNYQGQQYLLRRGEYPDYQQWMGLSDSIRSC | 0.181 ± 0.34 |
| ITFYEDRPFQGRSYETTTDCPNLQPYFSRCNSIRVESGCWMLYERPNYQGQQYLLRRGEYPDYQQWMGLSDSIRSC | -0.312 ± 0.16 |
| ITFYEDRQFQGRSYETTTDCPNLQPYFSRCNSIRVESGCWMLYERPNYQGQQYLLRRGEYPDYQQWMGLSDSIRSC | 0.007 ± 0.11 |
| ITFYEDRRFQGRSYETTTDCPNLQPYFSRCNSIRVESGCWMLYERPNYQGQQYLLRRGEYPDYQQWMGLSDSIRSC | -0.005 ± 0.061 |
| ITFYEDRSFQGRSYETTTDCPNLQPYFSRCNSIRVESGCWMLYERPNYQGQQYLLRRGEYPDYQQWMGLSDSIRSC | -0.016 ± 0.14 |
| ITFYEDRTFQGRSYETTTDCPNLQPYFSRCNSIRVESGCWMLYERPNYQGQQYLLRRGEYPDYQQWMGLSDSIRSC | -0.016 ± 0.14 |

| Variant | abundance fitness |
| --- | --- |
| ITFYEDRVFQGRSYETTTDCPNLQPYFSRCNSIRVESGCWMLYERPNYQGQQYLLRRGEYPDYQQWMGLSDSIRSC | -0.064 ± 0.069 |
| ITFYEDRWFQGRSYETTTDCPNLQPYFSRCNSIRVESGCWMLYERPNYQGQQYLLRRGEYPDYQQWMGLSDSIRSC | -0.069 ± 0.051 |
| ITFYEDRYFQGRSYETTTDCPNLQPYFSRCNSIRVESGCWMLYERPNYQGQQYLLRRGEYPDYQQWMGLSDSIRSC | -0.101 ± 0.42 |
| ITFYEDRAAQGRSYETTTDCPNLQPYFSRCNSIRVESGCWMLYERPNYQGQQYLLRRGEYPDYQQWMGLSDSIRSC | -0.139 ± 0.15 |
| ITFYEDRACQGRSYETTTDCPNLQPYFSRCNSIRVESGCWMLYERPNYQGQQYLLRRGEYPDYQQWMGLSDSIRSC | 0.12 ± 0.13 |
| ITFYEDRAEQGRSYETTTDCPNLQPYFSRCNSIRVESGCWMLYERPNYQGQQYLLRRGEYPDYQQWMGLSDSIRSC | -0.367 ± 0.21 |
| ITFYEDRALQGRSYETTTDCPNLQPYFSRCNSIRVESGCWMLYERPNYQGQQYLLRRGEYPDYQQWMGLSDSIRSC | 0.12 ± 0.16 |
| ITFYEDRAMQGRSYETTTDCPNLQPYFSRCNSIRVESGCWMLYERPNYQGQQYLLRRGEYPDYQQWMGLSDSIRSC | -0.095 ± 0.19 |
| ITFYEDRAQQGRSYETTTDCPNLQPYFSRCNSIRVESGCWMLYERPNYQGQQYLLRRGEYPDYQQWMGLSDSIRSC | -0.207 ± 0.39 |
| ITFYEDRASQGRSYETTTDCPNLQPYFSRCNSIRVESGCWMLYERPNYQGQQYLLRRGEYPDYQQWMGLSDSIRSC | -0.617 ± 0.18 |
| ITFYEDRATQGRSYETTTDCPNLQPYFSRCNSIRVESGCWMLYERPNYQGQQYLLRRGEYPDYQQWMGLSDSIRSC | -0.56 ± 0.3 |
| ITFYEDRAVQGRSYETTTDCPNLQPYFSRCNSIRVESGCWMLYERPNYQGQQYLLRRGEYPDYQQWMGLSDSIRSC | -0.628 ± 0.24 |
| ITFYEDRAWQGRSYETTTDCPNLQPYFSRCNSIRVESGCWMLYERPNYQGQQYLLRRGEYPDYQQWMGLSDSIRSC | -0.028 ± 0.067 |
| ITFYEDRAFAGRSYETTTDCPNLQPYFSRCNSIRVESGCWMLYERPNYQGQQYLLRRGEYPDYQQWMGLSDSIRSC | 0.065 ± 0.076 |
| ITFYEDRAFCGRSYETTTDCPNLQPYFSRCNSIRVESGCWMLYERPNYQGQQYLLRRGEYPDYQQWMGLSDSIRSC | 0.053 ± 0.075 |
| ITFYEDRAFFGRSYETTTDCPNLQPYFSRCNSIRVESGCWMLYERPNYQGQQYLLRRGEYPDYQQWMGLSDSIRSC | -0.082 ± 0.14 |
| ITFYEDRAFGGRSYETTTDCPNLQPYFSRCNSIRVESGCWMLYERPNYQGQQYLLRRGEYPDYQQWMGLSDSIRSC | -0.002 ± 0.038 |
| ITFYEDRAFHGRSYETTTDCPNLQPYFSRCNSIRVESGCWMLYERPNYQGQQYLLRRGEYPDYQQWMGLSDSIRSC | 0.124 ± 0.24 |
